Results as given in the nanobody polyreactivity screen of Harvey et al. (2022).

Experiment: yeast display, Sf9 membrane polyspecificity reagent, FACS + sequencing; frameworks hold sequencing errors
In short: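 Genes from sorted yeast were amplified by colony PCR, read by MiSeq 2 × 250 sequencing and filtered on CDR length. These cells carried a synthetic nanobody library in Saccharomyces cerevisiae BJ5465 and were sorted by FACS into low and high (top ~1%) gates on anti-HA and streptavidin fluorescence. Polyreactivity is labelled according to the gate of origin.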
In the case of “QVQLVESGGGLVQAGGSLRLSCAASGLIFYRYTMGWYRQAPGKERELVAAISWRGTRTYYADSVKGRFTISRDNAKNTVYLQMNSLKPEDTAVYYCTAGYVRRYSPSSSWRYDYWGQGTQVTVSS”, the “polyreactivity (PSR sort gate)” value is reported as “high polyreactivity”.
For “QVQLVESGGGLVQAGGSLRLSCAASGIIFESYSMGWYRQAPGKERELVAAISWDGGSTYYADSVKGRFTISRDNAKNTVYLQMNSLKPEDTAVYYCAAESYGIYDGYDYWGQGTQVTVSS”, the “polyreactivity (PSR sort gate)” value was “high polyreactivity”.
With “QVQLVESGGGLVQAGGSLRLSCAASGRTFDRDAKGWYRQAPGKERELVAVIRFIGGSTYYAYSVKGRFTISRDNAKNTVFLQMNSLKQEDTAVYDCATRGPIWGQRYYKGYYWGQGTQVTVSS” the “polyreactivity (PSR sort gate)” value was “low polyreactivity”.
For “QVQLVESGGGLVQAGGSLRLSCAASGTFVTYMGLYRQAPGKERELVAAIRNGGSTNYADSVKGRFTISRDNAKNTVYLQMNSLKPEDTAVDYFTADYTYWNGWFATRDYWGQGTQVTVSS”, the “polyreactivity (PSR sort gate)” value was “low polyreactivity”.
For “QVQHVESGGGIVQAGGSLRLSCAASGSTFSGYAMGWYRQAPGKERELVASISSGGRTTYADSVKGRFTISRDNAKNTVYLQMNSLKPEDTAVSYCAKRIRPGYARLYSWGQGTQVTVSS”, the “polyreactivity (PSR sort gate)” value was “high polyreactivity”.
In the case of “QVQLVESGGGLVQAGGSLRLSCSASGITFGTYAMGWYRQAPGKERELVASITYGGTNTYYADSVKGRFTISRDNAKNTVCLQMNSLKPEDTAVYYCNADPAVSRGSIATDDYDYWVQGTQVTVSS”, the “polyreactivity (PSR sort gate)” value is reported as “low polyreactivity”.
In the case of “QVQLVESGGGLVQAGGSLRLSCAASGSTFDVNAMGWYRQAPGKERELVAAISWNSGSTYYADSVKGRFTISRDNAKNTVYLQMNSLKPEDTAVYYCAATYGTGRRSKYGYWGQGTQVTVSS”, the “polyreactivity (PSR sort gate)” value is reported as “high polyreactivity”.
With “QVHHVESGGGLVQAGGSLRLSCAASGFTLGWYAMGWYRQAPGKERELVAAISSSGGSTYYADSVKGRFTISRDNAKNTVYFQMNSLKPEDTAVYFCAASSAYYRYGYGQFDYWGQGTQVTVSS” the “polyreactivity (PSR sort gate)” value was “high polyreactivity”.
For “QVQLVESGGGLVQAGGSLRLSCAASGIIFQGNAMGWYRQAPGKERELVAVITSRGGSTYYADSVKGRFTISRDNAKNTVYLQMNSLLPEDTAVYYCAKAKRYPQYYYWGQGTQVTVSS”, the “polyreactivity (PSR sort gate)” value was “high polyreactivity”.
For “QVQLVESGGGLVQAGGRLRLSCAASGRIFNIYAMGWYRQAPGKERELVAAISGSGGRTSYADSVKGRFTISRDNAKNTVYLQMNSLKPEDTAVYYCAADYSYYTSFRYDYWGQGTQVTVSS”, the “polyreactivity (PSR sort gate)” value was “low polyreactivity”.
For “QVQLEESGGGLVQAGASLRLSCAASGRTIAHYAMGWYRQAPGKERELVAAITRGGGTYYADSVKGRFTISRDNAKHSVYLQMNSLKPEDTAVYYCAADHSRYGYPAKTMDYWGQCTQVTVSS”, the “polyreactivity (PSR sort gate)” value was “low polyreactivity”.
With “QVQLVESGGGLVQAGGSLRLSSGAYGITFWTYAMGWYRQAHGKERELVAAISNGGSTSYADSVKGRFTISRDNAKNTVYLQINILKPEDTAVYYCASDWATHRPWYWCVYYWGQGTQVTVSS” the “polyreactivity (PSR sort gate)” value was “low polyreactivity”.
For “QVQLVESGGGLVQAGGSLRLSCAASGFTFHYYVMGWYRQAPGKERELVAAINAGGVSTYYADSVKGRFTISRDNAKNTVYLQMNSLKPEDTAVYYCNARVRVRLGRNWSSYYYWGQGTQVTVSS”, the “polyreactivity (PSR sort gate)” value was “high polyreactivity”.
With “QVQLVESGGGLVQAGGSLRLSCAATGFFFGPYVMGWYRQATGKERELVAVITWTGGSTSYADSVKGRFTISRDNAKNTVYLQMNSLKREDTAVYYCAARTHQYRSRSYYYWGQGTQVTVSS” the “polyreactivity (PSR sort gate)” value was “high polyreactivity”.
For “QVQLQESGGGLVQAGGSLRLSCAASGYISHADEMGWYRQAPGKEHELVASISNGGSTNYADSVKGRFTISRDNAKNTVFLQMNSLKSEDTAVYYCAAWTGQVDIHYYWGQGTQVTVSS”, the “polyreactivity (PSR sort gate)” value was “low polyreactivity”.
In the case of “QVQLVESGGGLVQAGGSLRLSCAASGIIFRPYAMGWYRQAPGKERELVAAISRGGRTKYADSVKGRFTISRDNAKNTVYLQMNSLKPEDTAVYYCAAQFRFTRLVGVAAEYDYGGQGTQVTVSS”, the “polyreactivity (PSR sort gate)” value is reported as “low polyreactivity”.
With “QVQLVQSGGGLVQAGGSLRLSCAASGFTFIRYAMGWYRQAPGKERELVAAIRGTGTSTYYADSVKGRFTISRDIAKNTVYLQMNSLKPEDTAVYYCNAGTYYRSYGYDYWGQGTQVTVSS” the “polyreactivity (PSR sort gate)” value was “low polyreactivity”.
In the case of “QVQLVESGGGLVQAGGSLRLSCAASGITFPGNAMGWYRQAPGKERELVAGISDGDSTNYADSVKARFTISRDNAKNTVYLQMNSLKPEDTAVYYCARDTELYVRWLDYWGQGTQVTVSS”, the “polyreactivity (PSR sort gate)” value is reported as “low polyreactivity”.
With “QVQLVESGGGLVQAGGSLRLSCAASGRIFPTYAMGWYRQAPGKERELVAGITSGGRTNYADSVKGRFTISRDNAKNTVYLQMNSLKPEDTAVYYCAKRVWPRDQYGKRNPRMDYWGQGTQVTVSS” the “polyreactivity (PSR sort gate)” value was “high polyreactivity”.
With “QVQLVESGGGLVQAGGSLRLSCAASGRTSYVYAMGWYRQAPGKERELVAAITSSGGSTYYADSVKGRFTISRDNAKNTVYLQMNSLKPEDTAVYYCAASRVRYSYGYPYYYWGQGTQVTVSS” the “polyreactivity (PSR sort gate)” value was “high polyreactivity”.
For “QVQLVESGGGLVQAGGSLRLSCAASGSIFGVNAMGWYRQAPGKERELVASITGGDSTNYADSEKGRFTISRDNAKNTVYLQMNSLKPEDTAVYYCAKDHYYRYEEGDYWGQGTQVTVSS”, the “polyreactivity (PSR sort gate)” value was “low polyreactivity”.
In the case of “QVHLVESGGGLVQAGGSLRLSCYASGRIFRYYAMGWYRQPPGKERELVAVINCSGGSTYYAVSVKGRFTISRDNAKNSVYLQMNSLKPEDTAVYYCYVYSVYPQFNYWGQGTQVTVSS”, the “polyreactivity (PSR sort gate)” value is reported as “high polyreactivity”.
With “QVQLVESGGGLVQAGGSLRLSCGASGRTFRRYAIGWYRQAPGKERELVATITSNGGSTYYADSVKGRFTISRDNAKNTVDLQLNSLTPEDTAVYYCARDLTYYRSRYDYWGQGTQVTVSS” the “polyreactivity (PSR sort gate)” value was “high polyreactivity”.
In the case of “QVQLVESGGGLVQAGGSLRLSCAASGSNFYSYVMGWYRQAPGKERELVAAISRNGQSTYYADSVKGRFTISRDNAKNTVYLQMNSLKPEDTAVYYCAARSRDKYDYWGQGTQVTVSS”, the “polyreactivity (PSR sort gate)” value is reported as “high polyreactivity”.
With “QVQLVESGGGLVQAGGSLRLSCAASGFTFSGYSMGWYRPAPGKERELVAAITKSGGSTYYADSVKGRFTISRDTAKNTVYLQMNSLKPEDTAVYYCNADVLYTTEGDYWGQGTQVTVSS” the “polyreactivity (PSR sort gate)” value was “high polyreactivity”.
With “QVQLVESGGGLVQAGGSLRLSCAASGIIFAKYAMGWYRQPPGKERELVASISRPGGSTYYADSVKGRFTISRDNAKNTVYLQMNSLKPEDTAVYDCNAPGLRDYDAEYDYWGQGTQVTVSS” the “polyreactivity (PSR sort gate)” value was “high polyreactivity”.
For “QVQLVESGGGLVQAGGSLRLSCAASGITLTVYTMGWYRQAPGKERKLVAAITYGGTSTYYADSVKGRFTISRDNAKNTVYLQMNSLKPEDTAVYYCAARARIYNYWGQGTQVTVSS”, the “polyreactivity (PSR sort gate)” value was “high polyreactivity”.
With “QVQLVESGGGLVQAGGSLRLSCAASGSTSTYYAMGWYRQAPGKERELVATISSTGNTKYADSVKGRFTISRDNAKNTVYLQMNSLKPEDTAVYYCNKRRSARFSSWGRVSYDYWGQGTQVTVSS” the “polyreactivity (PSR sort gate)” value was “high polyreactivity”.
In the case of “QVQLVESGGGIVQAGGILRLSCAASGRTLHYSAMVWYRQAPRIERELVAAISARGGRTYYADSVKGRYTISLDNAKNTVYLQMTSLKPEDTAVYYCAAAGYITGSDRYDYWGQGTLVTVSS”, the “polyreactivity (PSR sort gate)” value is reported as “high polyreactivity”.
With “QVQLVESGVGLVQAGGSLRLSCAASGSTFVWYAMGWYRQAPGKERELVAVIDWSGGSTSYADSVKGRFTISRDNAKNTVSFQMNSLKPEDTAVYYCAAQQGVISRGNYWGQGTQVTVSS” the “polyreactivity (PSR sort gate)” value was “low polyreactivity”.
With “QVQLVESGGGLVQAGGSLRLSCAASGSIFFLYAMGWYRQAPGKERELVAAISRDGRTNYADSVKGRFTISRDNAKNTVYLQMNSLKPEDTAVYYCAKDGNHPGAVGYGYWGQGTQVTVSS” the “polyreactivity (PSR sort gate)” value was “low polyreactivity”.
In the case of “QVQLVESGGGLVQAGGSLRLSCAASGSTFDDYVMGWYRQAPGKERELVAGINSRGTSTDYADSVKGRFTISRDNAKNTVYLQMNSLIPEDTAVYYCAADDSHGYDYWGQGTQVTVSS”, the “polyreactivity (PSR sort gate)” value is reported as “low polyreactivity”.
For “QVHIVESGEVIVQAGGSLRLSCDASGFTIIQYAMGWYRQAPGKERELVAAISVSGGSTYYADSVKGRFTISRDNAKNTVYLQMNSLKTEDTAVYYCATYGFHSIGSIFEYEYWGQGTQVTVSS”, the “polyreactivity (PSR sort gate)” value was “high polyreactivity”.
For “QVQLVESGGGLVQAGGSLRLSCAATGFTFCANAMGWYRQAPGKERELVAAISWTGVNTYYADSVKGRFTISRDNAKNTVYLQMNSLKPEDTAVYSCAAEQWSTGYYYWGQGTQVTVSS”, the “polyreactivity (PSR sort gate)” value was “high polyreactivity”.
With “QVQLVESGGGLVQAGGSLRLSCAASGSIFNAMGWYRQAPGKERELVAAITSGSSTYYADSVKGRFTISRDNAKNTVYLQMNSLKPEDTAVYYCAAGSQRRYYHTNWDSFNYWGQGTQVTVSS” the “polyreactivity (PSR sort gate)” value was “low polyreactivity”.
For “QVQLVESGGGLVQAGGSLRLSCAASGSIFYYNAMGWYRQEPGKERELVATITSAVSTNYADSVKGRFTISRDNAKNTVYLQMNSLKPQDTAVYYCAADDYQVQYDYWGQGTQVTVSS”, the “polyreactivity (PSR sort gate)” value was “low polyreactivity”.
With “QVQLVESGGGLVQAGGSLRLSCAASGFTFGSYAMGWYRQAPGKERELVAASTRRGDNTYYADSVKGRFTISRDNAKNTVYLQMNSLKPEDTAVYYCNVGLRSVVSGEYWGHGTQVTVSS” the “polyreactivity (PSR sort gate)” value was “high polyreactivity”.
In the case of “QVQLVESGRGLVQAGGSLRLSCAPSGIIFTSYAMGWYRQAPGKESEFVAAITRSGSRTYYADSVKGRFTISRDNAKNTVYLQMNRLKPEDTAVYYCAARTFHDSSDSYAGGYWGQGTQVTVSS”, the “polyreactivity (PSR sort gate)” value is reported as “low polyreactivity”.
With “QVQLVESGGGLVQAGGSLRLSCAASGLTFQGYAMGWYRQAPGKERELVAAISGSGGSTYYADSVKGRFTISRDNAKNTVYLQMNSLKPEDTAVYYCAADDSYYGIDYGYWGQGTQVTVSS” the “polyreactivity (PSR sort gate)” value was “low polyreactivity”.
With “QVQLVESGGGLVQAGGSLRLSFAASGSTFRRYDMGWYRQAPGKERELVADISDRGSRTYYADSVKGRFTISRDNAKKTVYFQMNSLEPEYTAVYYCAAEAVGNTSPGDYWGQGTQVTVSS” the “polyreactivity (PSR sort gate)” value was “high polyreactivity”.
In the case of “QVQLVESGGGLVQAGGSRRLSCAASGSIFYLYAMGWSRQAPGKERELVATITWSGGSTYYADSVKGRFTISRDTAKNTVYLQMNSLKPEDTAVYYCAATALEWYPAVYNQYYYWGQGTQVTVSS”, the “polyreactivity (PSR sort gate)” value is reported as “low polyreactivity”.
